Assay results reported in patent US20260263521A1 (AIMED BIO, published 2026).
Values joined by “and” are separate entries in the source; they are usually repeats but may differ in a detail not shown here. Equal values may be shown once. One block for each binder: values may come before it.

Key:
[1] = target: T1, human CD200R1 expressed on cells (Jurkat-CD200R1, U937-CD200R1, HH cells) (human, UniProt Q8TD46 25-348); assay: cell-based or functional assay
T1 sequence (looked up): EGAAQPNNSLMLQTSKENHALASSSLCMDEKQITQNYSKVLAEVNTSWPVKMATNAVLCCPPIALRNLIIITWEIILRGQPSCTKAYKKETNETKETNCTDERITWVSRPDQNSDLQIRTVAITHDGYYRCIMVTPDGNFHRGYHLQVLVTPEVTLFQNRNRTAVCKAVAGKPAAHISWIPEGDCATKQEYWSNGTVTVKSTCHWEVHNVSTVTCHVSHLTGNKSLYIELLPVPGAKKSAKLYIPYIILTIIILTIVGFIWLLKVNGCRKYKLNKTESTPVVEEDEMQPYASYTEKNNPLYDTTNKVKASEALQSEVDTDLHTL

[2] = target: T1, human CD200R1 expressed on cells …; assay: cell-based or functional assay; remark: listed apart in the source
[3] = target: T1, human CD200R1 expressed on cells …; assay: flow cytometry, HH cells
Protocol: (§1) Two additional wells were treated with 10 μl of mouse IgG1K (BD, #555751) and 5 μl of commercial CD200R1 antibody (Biolegend, #329308) to determine CD200R1 expression on the cell line surface for cell quality control.
(§2) The antibodies were serially diluted 10-fold from a maximum concentration of 100 nM to 10 nM, 1 nM, […], and were added to the pre-seeded cells. After reaction for 1 hour at 4° C., the cells were treated with Alexa-647 goat anti-human IgG (H+L) cross-adsorbed secondary antibody (Invitrogen, #A21445) and incubated for an additional 30 minutes at 4° C. After washing twice with FACS buffer, flow cytometry was performed using a Novocyte Flow cytometer (Agilent). Using GraphPad Prism software, the EC₅₀ was determined using a nonlinear graph model of log (agonist) vs. response-variable slope, as shown in Table 32.

[4] = target: T1, human CD200R1 expressed on cells …; assay: flow cytometry, U937-CD200R cells
Protocol: as §1, §2

[5] = target: T1, human CD200R1 expressed on cells …; assay: flow cytometry, Jurkat-CD200R cells
Protocol: as §1, §2

[6] = target: T2, human CD200R1 recombinant protein (construct not stated) (human, UniProt Q8TD46 27-266, limits assumed); assay: ELISA on human CD200R1, normalized absorbance at 450 nm, 0.0192-300 nM; panel 'Human CD200R1'
T2 sequence (looked up): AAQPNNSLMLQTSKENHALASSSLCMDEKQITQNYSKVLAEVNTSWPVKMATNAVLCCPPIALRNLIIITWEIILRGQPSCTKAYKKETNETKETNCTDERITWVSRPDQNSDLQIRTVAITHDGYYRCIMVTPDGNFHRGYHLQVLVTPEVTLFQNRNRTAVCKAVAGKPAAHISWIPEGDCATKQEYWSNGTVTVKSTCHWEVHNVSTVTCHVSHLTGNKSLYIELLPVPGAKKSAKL

[7] = target: T3, human CD200R1 with dual His-tags (human, UniProt Q8TD46 25-265); assay: SPR (Biacore CM5), His-tagged antigen captured by anti-histidine antibody, antibody as analyte, 1:1 Langmuir fit
T3 construct: Captured on the SPR chip by an anti-histidine antibody; also called hCD200R1-his; not shown: dual His-tags
T3 sequence (looked up): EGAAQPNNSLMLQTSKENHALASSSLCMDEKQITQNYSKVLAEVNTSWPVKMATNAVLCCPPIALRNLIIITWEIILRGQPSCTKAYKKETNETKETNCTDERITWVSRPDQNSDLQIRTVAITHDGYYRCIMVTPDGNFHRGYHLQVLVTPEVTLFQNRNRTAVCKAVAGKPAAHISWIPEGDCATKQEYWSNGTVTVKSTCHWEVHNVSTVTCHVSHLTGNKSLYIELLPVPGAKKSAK
Protocol: (§3) For the experiment, 30 μg/mL of an anti-histidine antibody was conjugated to a CM5 biacore chip via an amine bond while allowing to flow at 10 μl/min (10,000 RU). Then, 0.25 μg/mL of human or cynomolgus CD200R1 with dual His-tags was captured onto the completed chip for 60 seconds, and the binding ability of each antibody was analyzed. All experiments were performed by association of antibodies for 120 seconds and dissociation of antibodies for 600 seconds. The resulting graphs were fitted using a 1:1 Langmuir binding kinetic model (FIG. 16), and the kinetics of each antibody were calculated.

[8] = target: T4, cynomolgus CD200R1 with dual His-tags (cynomolgus, UniProt G7NZT0 25-266); assay: as above
T4 construct: Captured on the SPR chip by an anti-histidine antibody; also called CCD200R1-his; cCD200R1-his; not shown: dual His-tags
T4 sequence: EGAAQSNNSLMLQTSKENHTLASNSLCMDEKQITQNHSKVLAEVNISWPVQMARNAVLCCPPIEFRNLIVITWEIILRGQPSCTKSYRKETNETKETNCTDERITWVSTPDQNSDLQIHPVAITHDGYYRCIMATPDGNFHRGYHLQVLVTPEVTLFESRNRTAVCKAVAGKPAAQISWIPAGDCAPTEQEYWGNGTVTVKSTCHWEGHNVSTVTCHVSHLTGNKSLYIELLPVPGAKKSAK
Protocol: as §3

[9] = target: T2, human CD200R1 recombinant protein …; assay: ELISA on human CD200R1, O.D 450 nm, 0.0192-300 nM; panel 'P001_CD200R1 human 1'
Protocol: (§4) 96-well plates were coated with human CD200R1 (R&D systems, 3414-CD) and mouse CD200R1 protein (R&D systems, 2554-CD) at a concentration of 2 μg/mL at 4° C. for 16 hours and then were blocked with 3% skim milk.
(§5) Color was developed with a TMB substrate solution (Thermo Scientific, 34029, 1-Step™ TMB-ELISA Ultra Substrate Solution). The color reaction was stopped with stop solution (Invitrogen, SS04, ELISA Stop Solution). The absorbance was measured at an optical density of 450 nm.
(§6) The secondary engineered antibodies were evaluated by ELISA in the same manner as in Examples described above.

[10] = target: T5, mouse CD200R1 protein (R&D systems, 2554-CD) (mouse, UniProt Q9ES57 26-238, limits assumed); assay: ELISA on mouse CD200R1, O.D 450 nm, 0.0192-300 nM; panel 'P001_CD200R1 mouse 1'
T5 construct: Bought; construct not described
T5 sequence (looked up): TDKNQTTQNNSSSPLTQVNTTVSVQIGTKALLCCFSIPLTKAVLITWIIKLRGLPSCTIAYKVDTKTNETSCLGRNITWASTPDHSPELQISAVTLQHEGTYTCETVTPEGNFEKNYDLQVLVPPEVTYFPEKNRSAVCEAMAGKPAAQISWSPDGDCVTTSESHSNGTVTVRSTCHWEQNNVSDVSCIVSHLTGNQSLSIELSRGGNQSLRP
Protocol: as §4, §5, §6

[11] = target: T6, human CD200RLa (Sino Biological, 11620-H08H) recombinant protein (human, UniProt Q6Q8B3 24-239); assay: ELISA, plate-bound human CD200RLa (2 ug/mL), antibody 0.0192-300 nM, O.D 450 nm; panel 'recombinant human CD200RLa'
T6 construct: Bought; construct not described
T6 sequence (looked up): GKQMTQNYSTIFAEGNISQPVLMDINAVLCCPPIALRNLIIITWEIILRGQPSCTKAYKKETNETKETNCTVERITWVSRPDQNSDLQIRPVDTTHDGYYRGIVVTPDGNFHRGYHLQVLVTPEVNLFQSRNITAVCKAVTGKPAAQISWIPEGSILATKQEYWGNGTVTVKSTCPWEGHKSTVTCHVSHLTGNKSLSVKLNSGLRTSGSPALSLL
In short: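 Plates coated overnight (16 h, 4° C) with human or cynomolgus CD200RLa recombinant protein, blocked with 3% skim milk; bound antibody detected by TMB colour development, reaction stopped before reading.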

[12] = target: T5, mouse CD200R1 protein (R&D systems, …); assay: ELISA on coated mouse CD200R1
Hybrid CD200R1 MH = target: T7, Hybrid CD200R1 MH (mouse;human, UniProt Q9ES57;Q8TD46); assay: ELISA, plate-bound MH hybrid (1 ug/mL), antibody 0.0192-300 nM, O.D 450 nm; panel 'P001 MH domain-1)'
T7 construct: single domain; mouse D1 over human D2; also called MH hybrid domain; P001 MH domain
T7 sequence (hybrid extracellular part, looked up): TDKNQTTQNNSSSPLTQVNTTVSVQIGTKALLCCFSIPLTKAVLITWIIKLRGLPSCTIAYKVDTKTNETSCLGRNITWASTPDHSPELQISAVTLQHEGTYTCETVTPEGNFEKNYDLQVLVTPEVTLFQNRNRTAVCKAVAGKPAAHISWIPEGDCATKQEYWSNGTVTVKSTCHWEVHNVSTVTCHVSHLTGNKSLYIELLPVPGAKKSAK
Protocol: Recombinant proteins were produced from the extracellular Ig-like V-type domain and Ig-like C2-type domain of human CD200R1, each designed as human-mouse (HM hybrid domain) and mouse-human (MH hybrid domain) recombinant proteins. A 96-well plate was coated at a concentration of 1 μg/mL with each protein at 4° C. for 16 hours and blocked with 3% skim milk. […] After color development with TMB substrate solution (Thermo Scientific, 34029, 1-Step™ Ultra TMB-ELISA Substrate Solution), the color reaction was stopped with a stop solution (Invitrogen, SS04, ELISA Stop Solution), and the absorbance was measured at an O.D. of 450 nm.

Kd [8]: 0.264 nM
koff [8]: 0.00138 s⁻¹
kon [8]: 5.23e+06 M⁻¹ s⁻¹
B1: P001009v1 (antibody, V domains shown)
VH: EVQLLESGGGLVQPGGSLRLSCAASGFTFSSYDMSWVRQAPGKGLEWVSWISHGGGSIYYADSVKGRFTISRDNSKNTLYLQMNSLRAEDTAVYYCARDAPAYSAPLFDYWGQGTLVTVSS
VL: QSVLTQPPSASGTPGQRVTISCSGSSSNIGNNAVNWYQQLPGTAPKLLIYYDKNRPSGVPDRFSGSKSGTSASLAISGLRSEDEADYYCAAWDDRLSGYVFGGGTKLTVL
notes: P001009 with LC S52K and S94R (Kabat); also called P019001v1; P0001009v1
IC50 (nM) of IL-6 inhibition, LPS-treated U937-CD200R1 cells [1]: 0.1 nM
IC50 (nM) of TNF-α inhibition, LPS-treated U937-CD200R1 cells [1]: 0.18 nM
EC50 (nM), degree of signal transduction by the Dok2 protein [2]: 1.28 nM
EC50 [3]: 0.16 nM
EC50 [4]: 0.3 nM
EC50 [5]: 0.17 nM
EC50 (read off the curve) [6]: ~3 nM
Kd [7]: 0.021 nM
koff [7]: 0.0001 s⁻¹
kon [7]: 4.77e+06 M⁻¹ s⁻¹

binding result [10]: binds
binding result [11]: no binding (tested: 300 nM)
B2: P001018v26 (antibody, V domains shown)
VH: QVQLVQSGAEVKKPGASVKVSCKASGYTFTSYVMHWVRQAPGQGLEWMGYINPYNDDTNYNEKFKGRVTMTRDTSTSTVYMELSSLRSEDTAVYYCAREDYYGSRWGTWGQGTLVTVSS
VL: DIVLTQSPASLAVSPGQRATITCRASKSVSTSGYSYMHWYQQKPGQPPKLLIYLASNLESGVPARFSGSGSGTDFTLTINPVEANDTANYYCQHSHELLTFGQGTKVEIK
notes: H3-Y102T, L3-R92H
EC50 (read off the curve) [9]: ~2 nM and ~4 nM

binding result [11]: no binding (tested: 300 nM)
B3: P001001 (IgG) (antibody, V domains shown)
VH: EVQLLESGGGLVQPGGSLRLSCAASGFTFSSYDMHWVRQAPGKGLEWVSRISFTGSTSYNPSLKSRFTISRDNSKNTLYLQMNSLRAEDTAVYYCARDTWWEGYFDLWGQGTLVTVSS
VL: QSVLTQPPSASGTPGQRVTISCSGSSSNIGNNHVSWYQQLPGTAPKLLIYDDTDRLTSVPNRFSGSKSGTSASLAISGLRSEDEADYYCGTWDSSLSAYVFGGGTKLTVL
binding result [12]: no binding (tested: 300 nM (highest concentration tested))
binding result (Hybrid CD200R1 MH): no binding (tested: 300 nM)

B4: P001016 (IgG) (antibody, V domains shown)
VH: EVQLLESGGGLVQPGGSLRLSCAASGFTFSGYDMSWVRQAPGKGLEWVSGISYDGGSKYYADSVKGRFTISRDNSKNTLYLQMNSLRAEDTAVYYCAKDGYPLGAYYFDYWGQGTLVTVSS
VL: QSVLTQPPSASGTPGQRVTISCSVSSSNIGSNYVSWYRQLPGTAPKLLIYDDSKRPSGVPDRFSGSKSGTSASLAISGLRSEDEADYYCGTWDASLNGYVFGGGTKLTVL
binding result [12]: no binding (tested: 300 nM (highest concentration tested))
